Test results from US20260055143A1, “HIGH AFFINITY VARIANTS OF SH2 DOMAINS” (Axoiya Inc., priority 2023, published 2026).

Assays:
[1] = tested on: pMT peptide (EEPQ{pTyr}EEIPIY (SEQ ID NO: 181)); experiment: Competitive phage ELISA, Src variants; type: binding; conditions: IC50-based, fold over Src wt
Method: (§1) Competitive and non-competitive phage ELISAs were performed as previously described with minor modifications to the protocol. Peptide sequences used for these analyses can be found in Table 4.
(§2) Streptavidin (50 ng/well in TBS (50 mM Tris-HCl pH 8.0, 150 mM NaCl) was coated onto MAXISORP plates (Thermo Scientific). Phage binding was detected using HRP conjugated anti-M13 secondary antibody (1/2000 dilution, GE Healthcare) in TBS buffer containing 0.05% Tween-20 (TBT buffer). Phage binding was detected using the 3,3′,5,5′-tetramethylbenzidine (TMB) (Thermo Fisher Scientific) chromogenic substrate. Plates were read using a PowerWave XS microplate reader (BioTek).
(§3) Competitive phage-ELISAs were used to determine binding affinity of SH2 superbinders for their cognate target. ELISAs were performed as previously described, biotinylated and phosphorylated peptides were immobilized on plates at the concentration of 0.2 μM, and available binding sites on streptavidin were blocked by adding 25 μl/well of 50 μM D-biotin in TBS. […] Data were plotted using Prism 6 software (GraphPad Software Inc) and affinity of SH2 domains was inferred from determination of the half maximal inhibition concentration (IC50).

[2] = target: T1, ezrin phosphopeptide (PPV{pTyr}EPV (SEQ ID NO: 258)) (Homo sapiens, UniProt P15311); experiment: Fluorescence polarization binding assay of purified Fes-SH2 variants with peptide pEZ
T1 construct: made in house; host or cells: peptide: chemical (Fmoc) synthesis; SH2 domains: Escherichia coli BL21(DE3)
Excerpt: Peptide were synthesized using 9-fluorenylmethoxycarbonyl chemistry with the Prelude peptide synthesizer (Gyros Protein Technologies, Inc., Tucson, AZ) on Rink amide MBHA resin (Novabiochem, London, GB). Each peptide N-terminus was functionalized with biotin through a linker composed of two F-aminocaproic acids (Bachem). N-hydroxysuccinimide-fluorescein was used for N-terminal fluorescein labeling of the synthesized Ezrin pTyr-peptide used in fluorescence polarization tests. All peptides were purified using C-18 reverse phase HPLC (Waters) and their identity was confirmed by mass spectrometry on an Orbitrap Elite (ThermoFisher). Phosphopeptides that were used in the study but not synthesized in house were from GenScript.
Fluorescence polarization assays were performed as previously described. Briefly, binding measurements were performed in FP buffer (25 mM HEPES pH 7.5, 100 mM NaCl, 1 mM DTT, 0.01 mg/ml BSA, 0.03% BRIJ-35) by mixing in a 96-well plate 25 nM FITC-labeled Ezrin pTyr-peptide with serial dilutions of Fes-SH2 variants ranging from 1 mM to 22 nM. Samples were equilibrated at room temperature for 30 minutes before reading plates on an HTS Multi-Mode Microplate Reader (Synergy Neo) using an excitation filter of 485 nm and an emission filter of 530 nm. Dissociation constants were determined with Prism (GraphPad Software Inc) using a one-site total binding model.

cancer cell signaling = conditions: expression of the autonomous domain; cited from earlier work
[3] = target: Ezrin peptide (PPV{pTyr}EPVS (SEQ ID NO: 257)) (Homo sapiens, UniProt P15311); experiment: Competitive phage ELISA, Fes variants; type: binding; conditions: IC50-based, fold over Fes wt
Method: as §1, §2, §3

QGVI{pTyr}SDLNLP = QGVI{pTyr}SDLNLP (Homo sapiens, UniProt P26715); experiment: Competitive ELISA, Ptn6_C variants; type: binding
Method: as §1, §2, §3
Peptides listed in Table 5 were used to assay for binding affinity of each corresponding SH2 domain.

B1: Src^sFes: SEQ ID 167: Src SH2 domain with sFes graft (protein)
chain: MKIEEHHHHHHSSGKLGLNDIFEAQKIEWHESSGEDLYFQSGTTMDDYKDDDDKGGSDGIQAEEWYFGKITRRESERLLLNAENPRGTFLVREGQSQPDYVLSVSDFDNAKGLNVKHYIIRKLDSGGFYITSRTQFNSLQQLVAYYSKHADGLCHRLTTVCPSR
[1]
  enhancement of affinity of the domain (times): 125

B2: wt: unmodified Fes SH2 domain, SEQ ID 21 (protein, listed as Homo sapiens)
chain: WYHGAIPRAEVAELLVHSGDFLVRESQGKQEYVLSVLWDGLPRHFIIQSLDNLYRLEGEGFPSIPLLIDHLLSTQQPLTKKSGVVLHRAV
[2]; fluorescence polarization against the ezrin phosphopeptide
  IC50: 1300 nM
[2]; fold enhancement in apparent affinity over wt Fes SH2
  Fold Change: 1

B3: SuperSrc-SH2: SEQ ID 136: high affinity variant of the Src SH2 domain, BC loop SETVKGA (protein)
chain: MKIEEHHHHHHSSGKLGLNDIFEAQKIEWHESSGEDLYFQSGTTMDDYKDDDDKGGSDSIQAEEWYFGKITRRESERLLLNAENPRGTFLVRESETVKGAYALSVSDFDNAKGLNVKHYLIRKLDSGGFYITSRTQFNSLQQLVAYYSKHADGLCHRLTTVCPSR
Cancer cell signaling
  effect on cancer cell signaling: dominant negative effect

B4: Fes^sSrc: SEQ ID 145: Fes SH2 domain with sSrc graft (protein)
chain: MKIEEHHHHHHSSGKLGLNDIFEAQKIEWHESSGEDLYFQSGTTMDDYKDDDDKGGSEVQKPLHEQLWYHGAIPRAEVAELLVHSGDFLVRESETVKGAYALSVLWDGLPRHFLIQSLDNLYRLEGEGFPSIPLLIDHLLSTQQPLTKKSGVVLHRAVPSR
[3]
  enhancement of affinity of the domain (times): 650

B5: Ptn6_C^wt: wild-type PTN6_C SH2 domain, SEQ ID 59 (protein, listed as Homo sapiens)
chain: WYHGHMSGGQAETLLQAKGEPWTFLVRESLSQPGDFVLSVLSDQPKAGPGSPLRVTHIKVMCEGGRYTVGGLETFDSLTDLVEHFKKTGIEEASGAFVYLRQPY
QGVI{pTyr}SDLNLP; with either the sSrc or sFes graft
  change in affinity: no improvement in affinity
QGVI{pTyr}SDLNLP; αA-2-Arg mutation alone
  change in binding: not sufficient to enhance the binding
